Source: patent US20250376519A1 (JIANGSU HENGRUI PHARMACEUTICALS, published 2025)
One block for each binder: values may come before it.

Legend:
[1] = target: T1, hDLL3 (ECD)-strep twin, biotinylated (human, UniProt Q9NYJ7 27-492, biotinylated); test: ELISA, biotinylated antigen on streptavidin
T1 construct: The entry carries a signal peptide (marked only by a dotted line); also called Biotinylated DLL3 antigen; human DLL3 protein
Procedure: Streptavidin (abcam, ab136200, 1 μg/mL) was plated at 100 μL/well, and the plates were incubated overnight at 4° C. The plates were washed 3 times with 250 μL of PBST solution (PBS containing 0.1% Tween 20) per well. The plates were blocked with 250 μL of 5% milk per well at 37° C. for 2 h. The plates were washed 3 times with 250 μL of PBST solution per well. Biotinylated DLL3 antigen (1 μg/mL) (SEQ ID NO: 9) was added, and the plates were incubated at 37° C. for 1 h. The plates were washed 3 times with 250 μL of PBST solution per well. Antibodies (maximum concentration 400 nM, serially diluted 4-fold) were formulated, and incubation was performed at 37° C. for 1 h. The plates were washed 6 times with 250 μL of PBST solution per well. […] The plates were washed 6 times with 250 μL of PBST solution per well. TMB (KPL, 5120-0077) substrate solution was added at 100 μL/well, and color development was performed at room temperature for 5-10 min. 1 M H₂SO₄ was added at 100 μL/well to stop the color development, and microplate reader (Molecular Devices, VERSA max) readings at 450 nm were taken.

[2] = target: T2, cynomolgus monkey DLL3 on CHO-s cells (cynomolgus monkey, UniProt Q9NYJ7 27-618 (human entry)); test: flow cytometry, cynoDLL3/CHO-s cells
T2 construct: also called cynoDLL3/CHO-s; CynoDLL3/CHO-S
T2 chain: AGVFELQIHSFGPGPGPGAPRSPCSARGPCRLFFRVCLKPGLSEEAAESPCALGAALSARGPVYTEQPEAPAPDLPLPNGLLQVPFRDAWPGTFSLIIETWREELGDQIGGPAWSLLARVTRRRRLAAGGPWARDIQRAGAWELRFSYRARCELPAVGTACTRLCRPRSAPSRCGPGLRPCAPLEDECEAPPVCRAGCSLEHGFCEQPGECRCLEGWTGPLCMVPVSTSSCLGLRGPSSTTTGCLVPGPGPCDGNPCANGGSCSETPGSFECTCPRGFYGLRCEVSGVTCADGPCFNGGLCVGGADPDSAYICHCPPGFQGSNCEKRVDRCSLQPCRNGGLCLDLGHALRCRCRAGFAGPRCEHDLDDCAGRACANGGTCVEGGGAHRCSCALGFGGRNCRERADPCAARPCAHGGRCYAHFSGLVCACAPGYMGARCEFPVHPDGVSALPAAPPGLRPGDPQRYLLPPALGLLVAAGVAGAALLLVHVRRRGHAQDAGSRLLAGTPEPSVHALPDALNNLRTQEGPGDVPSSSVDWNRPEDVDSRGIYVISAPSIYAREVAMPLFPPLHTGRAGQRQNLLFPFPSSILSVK
Procedure: The plates were centrifuged at 300 g for 5 min, and the supernatant was removed. Different concentrations of test antibodies were added at 100 μL/well. The plates were incubated in the dark in a refrigerator at 4° C. for 1 h. After 3 centrifugal washes at 300 g, working concentrations of APC anti-human IgG Fc (BioLegend, 410712) or PE F(ab′)2-goat anti-human IgG (invitrogen, H10104) were added. The plates were incubated in the dark in a refrigerator at 4° C. for 40 min. After 3 centrifugal washes at 300 g, the geometric mean fluorescence intensity was measured on an Invitrogen flow cytometer, and the EC50 values for the binding of the antibodies to DLL3-expressing cells were calculated.

[3] = target: T3, mouse DLL3 (KACTUS, DLL-MM103) (mouse, UniProt O88516 33-490, limits assumed); test: SPR Biacore 8K, Ab captured on Protein A
T3 construct: Bought
T3 sequence: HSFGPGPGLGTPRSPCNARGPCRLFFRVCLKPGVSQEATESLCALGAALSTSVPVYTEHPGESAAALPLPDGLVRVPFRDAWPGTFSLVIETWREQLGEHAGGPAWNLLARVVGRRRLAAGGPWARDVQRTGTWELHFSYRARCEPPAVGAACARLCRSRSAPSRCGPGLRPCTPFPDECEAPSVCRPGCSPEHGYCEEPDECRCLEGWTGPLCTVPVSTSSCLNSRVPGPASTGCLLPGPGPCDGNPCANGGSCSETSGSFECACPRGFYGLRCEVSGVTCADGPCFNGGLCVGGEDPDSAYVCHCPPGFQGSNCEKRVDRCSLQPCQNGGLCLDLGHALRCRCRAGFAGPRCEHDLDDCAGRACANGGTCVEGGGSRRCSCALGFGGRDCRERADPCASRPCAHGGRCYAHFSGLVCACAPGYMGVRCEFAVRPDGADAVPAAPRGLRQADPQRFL
Outline: (§1)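 Antibodies captured on a Protein A chip for 18 s; DLL3 or CD3D&3E antigen flowed 180 s, then 600 s dissociation, with real-time detection. Regeneration used 10 mM glycine-HCl pH 1.5 between cycles. Kinetics were obtained by 1:1 model fitting.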

[4] = target: T4, monkey CD3D&3E (ACRO, CDD-C52W4) (cynomolgus monkey, UniProt Q95LI8 22-105; Q95LI5 22-117); test: SPR Biacore 8K, Ab captured on Protein A
T4 construct: bought CD3 delta/epsilon protein; also called cynomolgus monkey CD3
T4 sequence (Q95LI8 22-105, chain 1 of 2): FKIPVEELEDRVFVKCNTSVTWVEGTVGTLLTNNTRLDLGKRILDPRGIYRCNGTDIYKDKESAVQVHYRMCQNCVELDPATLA
T4 sequence (Q95LI5 22-117, chain 2 of 2): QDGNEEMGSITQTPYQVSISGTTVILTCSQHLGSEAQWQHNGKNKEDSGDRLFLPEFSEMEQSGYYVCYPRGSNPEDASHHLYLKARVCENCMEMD
Outline: as §1

EC50 [1]: 0.11 nM | EC50 [2]: 5.01 nM | binding result [3]: no binding | Kd [4]: 39.6 nM | koff [4]: 0.007 s⁻¹ | kon [4]: 177000 M⁻¹ s⁻¹
B1: hu110-S107E-hot Ig (bispecific antibody)
light 1: NIVMTQSPKSLAVSLGERATINCKASENVGIFVSWYQQKPGQSPKLLIYGASNRYTGVPDRFSGSGSATDFTLTISSLQAEDVADYYCGQSHSYPLTFGQGTKLEIKGGGGSSGAPRFLTRPKASVVSVGKDATLSCQIVGNPFPQVSWEKDKQPVTAGVRFRLAQDGDLYRLKILDLQLSDSGQYVCRARNAHGEAFACLGLQVDAEA
heavy 1: EVQLVQSGAEVKKPGASVKVSCKTSGYTFTDYYMNWVRQAPGQSLEWMGIINPYQGGTSYTQKFKGRVTITVDKSASTAYMELSSLRSEDTAVYYCARHFYDSSYLTYSTMDYWGQGTTVTVSSGGGGSGIPPKIECLPIDISIDEGKVLTVASAFTGEPTPEVTWSTGGRKIHSQEQGRFHIENTDDSTTLTIKDVQKQDGGLYTLTLRNEFGSDSATVNIHIRSIDKTHTCPPCPAPEAAGGPSVFLFPPKPKDTLMISRTPEVTCVVVDVSHEDPEVKFNWYVDGVEVHNAKTKPREEQYNSTYRVVSVLTVLHQDWLNGKEYKCKVSNKALPAPIEKTISKAKGQPREPQVCTLPPSREEMTKNQVSLSCAVKGFYPSDIAVEWESNGQPENNYKTTPPVLDSDGSFFLVSKLTVDKSRWQQGNVFSCSVMHEALHNHYTQKSLSLSPGK
heavy 2: not shown
light 2: not shown
notes: Format 1 (Hot-Ig, Titin/Obscurin-replaced DLL3 Fab), DLL3 x CD3

EC50 [1]: 0.08 nM | EC50 [2]: 4.92 nM | binding result [3]: no binding | Kd [4]: 1.5 nM
B2: hu110-I2C-hot Ig (bispecific antibody)
light 1: B1 light 1
heavy 1: B1 heavy 1
heavy 2: not shown
light 2: not shown
notes: as for B1

EC50 [1]: 0.07 nM | EC50 [2]: 4.92 nM | binding result [3]: no binding | Kd [4]: 2.32 nM
B3: hu110-I2C-Y body (bispecific antibody)
light: NIVMTQSPKSLAVSLGERATINCKASENVGIFVSWYQQKPGQSPKLLIYGASNRYTGVPDRFSGSGSATDFTLTISSLQAEDVADYYCGQSHSYPLTFGQGTKLEIKRTVAAPSVFIFPPSDEQLKSGTASVVCLLNNFYPREAKVQWKVDNALQSGNSQESVTEQDSKDSTYSLSSTLTLSKADYEKHKVYACEVTHQGLSSPVTKSFNRGEC
heavy: EVQLVQSGAEVKKPGASVKVSCKTSGYTFTDYYMNWVRQAPGQSLEWMGIINPYQGGTSYTQKFKGRVTITVDKSASTAYMELSSLRSEDTAVYYCARHFYDSSYLTYSTMDYWGQGTTVTVSSASTKGPSVFPLAPSSKSTSGGTAALGCLVKDYFPEPVTVSWNSGALTSGVHTFPAVLQSSGLYSLSSVVTVPSSSLGTQTYICNVNHKPSNTKVDKKVEPKSCDKTHTCPPCPAPEAAGGPSVFLFPPKPKDTLMISRTPEVTCVVVDVSHEDPEVKFNWYVDGVEVHNAKTKPREEQYNSTYRVVSVLTVLHQDWLNGKEYKCKVSNKALPAPIEKTISKAKGQPREPQVCTLPPSREEMTKNQVSLSCAVKGFYPSDIAVEWESNGQPENNYKTTPPVLDSDGSFFLVSKLTVDKSRWQQGNVFSCSVMHEALHNHYTQKSLSLSPGK
chain: not shown
notes: Format 2 (Y body: DLL3 Fab-Fc hole + CD3 scFv-Fc knob)
